Assay in all cases: BLI; Octet RED96; His6-tagged sE2 (5 ug/ml, 600 s) loaded on Ni2+-NTA biosensors and stabilised with EDC/NHS, quenched with 1 M ethanolamine pH 8.0; association 300 s, dissociation 300 s; 2-fold dilution series of CD81 or HMAb (IgG format); steady-state analysis by the legend, global fit by the methods; values may reflect bivalent IgG binding
For experiment [1], the target named is Sf9-derived soluble HCV E2 glycoprotein (sE2), genotype 1a H77c, residues 384 to 661, monomeric (hepatitis C virus genotype 1a, strain H77c) (UniProt P27958).
Chain of Sf9-derived soluble HCV E2 glycoprotein (sE2), genotype 1a H77c, residues 384 to 661, monomeric (hepatitis C virus genotype 1a, strain H77c) (P27958 384-661): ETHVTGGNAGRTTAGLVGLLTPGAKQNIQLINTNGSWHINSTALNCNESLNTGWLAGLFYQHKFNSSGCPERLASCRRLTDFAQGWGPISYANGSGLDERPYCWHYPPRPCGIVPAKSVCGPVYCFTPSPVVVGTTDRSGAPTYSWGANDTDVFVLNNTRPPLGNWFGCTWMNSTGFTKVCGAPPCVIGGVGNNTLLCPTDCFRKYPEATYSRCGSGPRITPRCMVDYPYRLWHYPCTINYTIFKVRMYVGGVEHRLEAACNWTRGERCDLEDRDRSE
Experiment [2] addresses HEK293-derived soluble HCV E2 glycoprotein (sE2), genotype 1a H77c, residues 384 to 661, monomeric (hepatitis C virus genotype 1a, strain H77c) (UniProt P27958).
Experiment [3] addresses T1, HEK293-derived soluble HCV E2 glycoprotein (sE2), genotype 1a H77c, residues 384 to 661, monomeric (hepatitis C virus genotype 1a, strain …, UniProt P27958 384-661, N-glycans at positions 417, 423, 430, 448, 476, 532, 540, 556, 576, 623 and 645; mostly complex- and high-mannose-type glycans).
T1 construct: HCV envelope glycoprotein E2 lacking the C-terminal transmembrane anchor, amino acids 384 to 661 of the strain 1a HCV H77c polyprotein; also called HEK293-derived sE2; HEK293 sE2; source: FreeStyle 293-F (HEK293-F) cells, transfected, secreted; purified from culture supernatant (HisTrap Ni2+-NTA, Superdex 200; monomer peak); not shown: His6, C-terminal, kept
The settings on record: both partners purified.

The target of experiment [4] is T2, Sf9-derived soluble HCV E2 glycoprotein (sE2), genotype 1a H77c, residues 384 to 661, monomeric (hepatitis C virus genotype 1a, strain …, UniProt P27958 384-661, N-glycans at positions 417, 423, 430, 448, 476, 532, 540, 556, 576, 623 and 645; mainly paucimannose-type glycans, with or without one or two core fucose residues).
T2 construct: HCV envelope glycoprotein E2 lacking the C-terminal transmembrane anchor, amino acids 384 to 661 of the strain 1a HCV H77c polyprotein; also called Sf9-derived sE2; Sf9 sE2; source: Sf9 cells infected with recombinant baculovirus, secreted; purified from culture supernatant (HisTrap Ni2+-NTA, Superdex 200; monomer peak); not shown: His6, C-terminal, kept
T2 sequence (P27958 384-661): as above
The settings on record: both partners purified.

Chain of HEK293-derived soluble HCV E2 glycoprotein (sE2), genotype 1a H77c, residues 384 to 661, monomeric (hepatitis C virus genotype 1a, strain H77c) (P27958 384-661): as above
T1 sequence (P27958 384-661): as above

B1: Human monoclonal antibody (HMAb) HC33.1, specific for antigenic domain E of HCV E2 (antibody, V domains shown)
VH: EVQLVESGGGLVQPGGSLRLSCVASGLTFTNFAVSWVRQAPGKGLEWVSAISSSDGSTYYSDSVKGRFTISRDSSMNTLYLQMDSLRVEDTAVYFCARAVVSSDITYTYWSKYFDYWGQGTLVTVSS
VL: QSVVTQPPSVSAAPGQKVTISCSGGSFNIGNNYVSWYQQLPGTAPKLLIYDNDNRPSGIPDRFSGSKSGTSATLDITGLQTGDEADYYCGTWDSSLNVVVFGGGTKLTVL
Turning to B1, the Kd in experiment [1] came to 47 nM; in experiment [2] it was 50 nM.

B2: Human CD81 large extracellular loop (CD81-LEL; CD81 residues 113 to 201) (domain or fragment, UniProt P60033 113-201, looked up)
chain: FVNKDQIAKDVKQFYDQALQQAVVDDDANNAKAVVKTFHETLDCCGSSTLTALTTSVLKNNLCPSGSNIISNLFKEDCHQKIDDLFSGK
notes: human CD81 large extracellular loop, residues 113 to 201; Cloned into the vector pHLsec (Addgene plasmid #99845 is the vector); The C-terminal His6 tag was stripped with carboxypeptidase A-agarose before biolayer interferometry; also called recombinant CD81; source: FreeStyle HEK293-F cells, transfected, secreted; purified from culture supernatant (HiTrap chelating HP Ni2+-NTA, Superdex 75); not …
Consider B2, for which the Kd stood at 510 ± 22 nM in experiment [3] and 440 ± 38 nM in experiment [4].

The record behind these values is publication PMC6430559, “Antigenicity and Immunogenicity of Differentially Glycosylated Hepatitis C Virus E2 Envelope Proteins Expressed in Mammalian and Insect Cells” (Journal of Virology, 2019).
